Experimental data: patent publication US6905846

Tests used:
[1] = molecular target: recombinant factor X (rFX), expressed in CHO cells from human factor X cDNA (human) (UniProt P00742); assay: cell-based or functional assay
[2] = molecular target: T1, recombinant FX deletion mutant having the furin cleavage site Arg-Val-Thr-Arg/Ile (rFXΔ^RVTR/I)
T1 chain: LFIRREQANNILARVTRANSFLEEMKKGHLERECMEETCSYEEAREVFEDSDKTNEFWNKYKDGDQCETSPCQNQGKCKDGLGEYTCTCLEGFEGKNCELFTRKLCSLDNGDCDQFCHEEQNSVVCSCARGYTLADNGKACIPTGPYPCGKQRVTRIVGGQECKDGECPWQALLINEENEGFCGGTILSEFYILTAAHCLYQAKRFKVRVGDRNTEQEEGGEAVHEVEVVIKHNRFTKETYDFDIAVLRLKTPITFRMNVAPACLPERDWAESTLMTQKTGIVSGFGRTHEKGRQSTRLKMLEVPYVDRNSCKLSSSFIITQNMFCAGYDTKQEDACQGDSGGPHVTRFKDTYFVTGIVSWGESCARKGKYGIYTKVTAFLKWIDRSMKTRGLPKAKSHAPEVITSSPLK

rfurin ÿTM6xHis (r-furin derivative, as CHO cell culture supernatant; patent application EP 0 775 750) (from UniProt P09958 108-707) (enzyme)
functional portion of rFX (%), incubation 0 days [1]: 61%
functional portion of rFX (%), incubation 1 day [1]: 73%
functional portion of rFX (%), incubation 2 days [1]: 79%
functional portion of rFX (%), incubation 3 days [1]: 81%
functional portion of rFX (%), incubation 4 days [1]: 86%

B1: r-furinÿCys-spacer-10xHis (purified r-furin derivative; patent application EP-0 775 750-A2) (protein)
chain: DVYQEPTDPKFPQQWYLSGVTQRDLNVKAAWAQGYTGHGIVVSILDDGIEKNHPDLAGNYDPGASFDVNDQDPDPQPRYTQMNDNRHGTRCAGEVAAVANNGVCGVGVAYNARIGGVRMLDGEVTDAVEARSLGLNPNHIHIYSASWGPEDDGKTVDGPARLAEEAFFRGVSQGRGGLGSIFVWASGNGGREHDSCNCDGYTNSIYTLSISSATQFGNVPWYSEACSSTLATTYSSGNQNEKQIVTTDLRQKCTESHTGTSASAPLAAGIIALTLEANKNLTWRDMQHLVVQTSKPAHLNANDWATNGVGRKVSHSYGYGLLDAGAMVALAQNWTTVAPQRKCIIDILTEPKDIGKRLEVRKTVTACLGEPNHITRLEHAQARLTLSYNRRGDLAIHLVSPMGTRSTLLAARPHDYSADGFNDWAFMTTHSWDEDPSGEWVLEIENTSEANNYGTLTKFTLVLYGTAPEG
processing/activation of rFXΔ^RVTR/I (Western blot; 6, 24, 48, 72 hours at 37° C.) [2]: In the presence of the r-furin derivative (FIG. 10A), a 35 kD protein band appears already after 6 hours of incubation (lane 5), which corresponds to the form of the FX heavy chain
